Data taken from the supplement of paper PMC10567573.

B1: POMT2 (parent)
chain: VLRSRIRFIHLVTGCVLGSSGKVL
B2: APBB1IP (parent)
chain: ADPVLDLPLPPPPPEPLSQVSMWD
B3: SPATS1 (parent)
chain: GRKKYDIDPRNGIPKLTPGDNPYM

Variants of: B1
Assay: protein stability index of a GFP-peptide fusion (GPS, HEK-293T) (PSI 1-6); higher = more stable
Details: c terminus: a fixed tail appended
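Note: lentivirally expressed fusions sorted by FACS into six bins by GFP to DsRed ratio, PSI derived from sequencing read proportions per bin multiplied by bin number.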

For VLRSRIRFIHLVTGCVLGSSGKVI [L24I], which protein stability index is on record?
The protein stability index was 4.08.

With VLRSRIRFIHLVTGCVLGSSGKVG [L24G] as the variant, how does the protein stability index read?
Its protein stability index is 3.89.

For VLRSRIRFIHLVTGCVLGSSGKVW [L24W], which protein stability index is on record?
The protein stability index was 4.21.

With VLRSRIRFIHLVTGCVLGSSGKVH [L24H] as the variant, how does the protein stability index read?
The protein stability index was 3.1.

For VLRSRIRFIHLVTGCVLGSSGKVM [L24M], which protein stability index is on record?
Its protein stability index is 2.42.

With VLRSRIRFIHLVTGCVLGSSGKVY [L24Y] as the variant, how does the protein stability index read?
The protein stability index was 2.18.

With VLRSRIRFIHLVTGCVLGSSGKVD [L24D] as the variant, how does the protein stability index read?
Its protein stability index is 2.33.

Which protein stability index does the source give for VLRSRIRFIHLVTGCVLGSSGKVE [L24E] here?
The protein stability index was 3.25.

With VLRSRIRFIHLVTGCVLGSSGKVR [L24R] as the variant, how does the protein stability index read?
The protein stability index was 2.92.

For VLRSRIRFIHLVTGCVLGSSGKVN [L24N], which protein stability index is on record?
The protein stability index was 1.89.

For VLRSRIRFIHLVTGCVLGSSGKVS [L24S], which protein stability index is on record?
Its protein stability index is 2.75.

With VLRSRIRFIHLVTGCVLGSSEKVL [G21E] as the variant, how does the protein stability index read?
The protein stability index was 3.64.

For VLRSRIRFIHLVTGCVLGSSTKVL [G21T], which protein stability index is on record?
The protein stability index was 2.

For VLRSRIRFIHLVTGCVLGSSCKVL [G21C], which protein stability index is on record?
Its protein stability index is 3.88.

Which protein stability index does the source give for VLRSRIRFIHLVTGCVLGSSMKVL [G21M] here?
Its protein stability index is 3.38.

Which protein stability index does the source give for VLRSRIRFIHLVTGCVLGSSLKVL [G21L] here?
Its protein stability index is 3.1.

For VLRSRIRFIHLVTGCVLGSSQKVL [G21Q], which protein stability index is on record?
The protein stability index was 3.44.

For VLRSRIRFIHLVTGCVLGSSVKVL [G21V], which protein stability index is on record?
The protein stability index was 2.17.

Which protein stability index does the source give for VLRSRIRFIHLVTGCVLGSSDKVL [G21D] here?
Its protein stability index is 3.45.

Which protein stability index does the source give for VLRSRIRFIHLVTGCVLGSSNKVL [G21N] here?
The protein stability index was 2.47.

With VLRSRIRFIHLVTGCVLGSSRKVL [G21R] as the variant, how does the protein stability index read?
Its protein stability index is 2.47.

For VLRSRIRFIHLVTGCVLGSSSKVL [G21S], which protein stability index is on record?
Its protein stability index is 3.83.

Which protein stability index does the source give for VLRSRIRFIHLVTGCVLGSSHKVL [G21H] here?
The protein stability index was 3.14.

With VLRSRIRFIHLVTGCVLGSSFKVL [G21F] as the variant, how does the protein stability index read?
The protein stability index was 2.53.

For VLRSRIRFIHLVTGCVLGSSAKVL [G21A], which protein stability index is on record?
The protein stability index was 2.99.

With VLRSRIRFIHLVTGCVLGSSIKVL [G21I] as the variant, how does the protein stability index read?
The protein stability index was 1.98.

Which protein stability index does the source give for VLRSRIRFIHLVTGCVLGSSPKVL [G21P] here?
Its protein stability index is 2.65.

Which protein stability index does the source give for VLRSRIRFIHLVTGCVLGSSWKVL [G21W] here?
Its protein stability index is 2.96.

With VLRSRIRFIHLVTGCVLGNSGKVL [S19N] as the variant, how does the protein stability index read?
The protein stability index was 2.73.

Which protein stability index does the source give for VLRSRIRFIHLVTGCVLGDSGKVL [S19D] here?
The protein stability index was 3.66.

Which protein stability index does the source give for VLRSRIRFIHLVTGCVLGTSGKVL [S19T] here?
Its protein stability index is 3.6.

With VLRSRIRFIHLVTGCVLGCSGKVL [S19C] as the variant, how does the protein stability index read?
Its protein stability index is 2.51.

With VLRSRIRFIHLVTGCVLGRSGKVL [S19R] as the variant, how does the protein stability index read?
The protein stability index was 2.41.

Which protein stability index does the source give for VLRSRIRFIHLVTGCVLGGSGKVL [S19G] here?
Its protein stability index is 1.99.

For VLRSRIRFIHLVTGCVLGMSGKVL [S19M], which protein stability index is on record?
Its protein stability index is 3.45.

Which protein stability index does the source give for VLRSRIRFIHLVTGCVLGLSGKVL [S19L] here?
The protein stability index was 1.78.

For VLRSRIRFIHLVTGCVLGFSGKVL [S19F], which protein stability index is on record?
Its protein stability index is 2.63.

For VLRSRIRFIHLVTGCVLGISGKVL [S19I], which protein stability index is on record?
The protein stability index was 2.59.

For VLRSRIRFIHLVTGCVLGVSGKVL [S19V], which protein stability index is on record?
The protein stability index was 2.73.

For VLRSRIRFIHLVTGCVLGPSGKVL [S19P], which protein stability index is on record?
The protein stability index was 3.18.

Which protein stability index does the source give for VLRSRIRFIHLVTGCVLGWSGKVL [S19W] here?
Its protein stability index is 2.66.

For VLRSRIRFIHLVTGCVLGKSGKVL [S19K], which protein stability index is on record?
The protein stability index was 1.67.

With VLRSRIRFIHLVTGCVLGASGKVL [S19A] as the variant, how does the protein stability index read?
Its protein stability index is 1.93.

Which protein stability index does the source give for VLRSRIRFIHLVTGCVLGSWGKVL [S20W] here?
Its protein stability index is 2.12.

With VLRSRIRFIHLVTGCVLGSIGKVL [S20I] as the variant, how does the protein stability index read?
The protein stability index was 1.78.

For VLRSRIRFIHLVTGCVLGSFGKVL [S20F], which protein stability index is on record?
The protein stability index was 1.43.

For VLRSRIRFIHLVTGCVLGSPGKVL [S20P], which protein stability index is on record?
Its protein stability index is 1.69.

For VLRSRIRFIHLVTGCVLGSAGKVL [S20A], which protein stability index is on record?
The protein stability index was 3.46.

Which protein stability index does the source give for VLRSRIRFIHLVTGCVLGSEGKVL [S20E] here?
Its protein stability index is 1.99.

For VLRSRIRFIHLVTGCVLGSQGKVL [S20Q], which protein stability index is on record?
Its protein stability index is 3.58.

Which protein stability index does the source give for VLRSRIRFIHLVTGCVLGSMGKVL [S20M] here?
The protein stability index was 1.28.

With VLRSRIRFIHLVTGCVLGSGGKVL [S20G] as the variant, how does the protein stability index read?
Its protein stability index is 2.08.

For VLRSRIRFIHLVTGCVLGSRGKVL [S20R], which protein stability index is on record?
Its protein stability index is 2.82.

With VLRSRIRFIHLVTGCVLGSYGKVL [S20Y] as the variant, how does the protein stability index read?
Its protein stability index is 2.86.

Which protein stability index does the source give for VLRSRIRFIHLVTGCVLGSDGKVL [S20D] here?
The protein stability index was 2.12.

For VLRSRIRFIHLVTGCVLGSCGKVL [S20C], which protein stability index is on record?
The protein stability index was 3.22.

For VLRSRIRFIHLVTGCVLGSTGKVL [S20T], which protein stability index is on record?
Its protein stability index is 3.42.

For VLRSRIRFIHLVTGCVLGSHGKVL [S20H], which protein stability index is on record?
Its protein stability index is 2.64.

With VLRSRIRFIHLVTGCVLGSVGKVL [S20V] as the variant, how does the protein stability index read?
The protein stability index was 1.85.

Which protein stability index does the source give for VLRSRIRFIHLVTGCVLGSLGKVL [S20L] here?
The protein stability index was 2.12.

With VLRSRIRFIHLVTGCVLGSSGKML [V23M] as the variant, how does the protein stability index read?
The protein stability index was 2.32.

With VLRSRIRFIHLVTGCVLGSSGKCL [V23C] as the variant, how does the protein stability index read?
The protein stability index was 2.37.

Which protein stability index does the source give for VLRSRIRFIHLVTGCVLGSSGKQL [V23Q] here?
The protein stability index was 3.61.

Which protein stability index does the source give for VLRSRIRFIHLVTGCVLGSSGKYL [V23Y] here?
Its protein stability index is 2.47.

Which protein stability index does the source give for VLRSRIRFIHLVTGCVLGSSGKRL [V23R] here?
The protein stability index was 1.46.

Which protein stability index does the source give for VLRSRIRFIHLVTGCVLGSSGKGL [V23G] here?
The protein stability index was 3.42.

Which protein stability index does the source give for VLRSRIRFIHLVTGCVLGSSGKEL [V23E] here?
The protein stability index was 3.48.

Which protein stability index does the source give for VLRSRIRFIHLVTGCVLGSSGKDL [V23D] here?
The protein stability index was 3.41.

For VLRSRIRFIHLVTGCVLGSSGKPL [V23P], which protein stability index is on record?
The protein stability index was 3.61.

For VLRSRIRFIHLVTGCVLGSSGKKL [V23K], which protein stability index is on record?
Its protein stability index is 2.21.

For VLRSRIRFIHLVTGCVLGSSGKFL [V23F], which protein stability index is on record?
Its protein stability index is 1.77.

Which protein stability index does the source give for VLRSRIRFIHLVTGCVLGSSGDVL [K22D] here?
Its protein stability index is 3.31.

Which protein stability index does the source give for VLRSRIRFIHLVTGCVLGSSGYVL [K22Y] here?
Its protein stability index is 2.74.

For VLRSRIRFIHLVTGCVLGSSGCVL [K22C], which protein stability index is on record?
Its protein stability index is 2.73.

With VLRSRIRFIHLVTGCVLGSSGWVL [K22W] as the variant, how does the protein stability index read?
The protein stability index was 3.35.

With VLRSRIRFIHLVTGCVLGSSGPVL [K22P] as the variant, how does the protein stability index read?
The protein stability index was 1.99.

For VLRSRIRFIHLVTGCVLGSSGVVL [K22V], which protein stability index is on record?
The protein stability index was 3.02.

Which protein stability index does the source give for VLRSRIRFIHLVTGCVLGSSGAVL [K22A] here?
The protein stability index was 2.25.

With VLRSRIRFIHLVTGCVLGSSGHVL [K22H] as the variant, how does the protein stability index read?
The protein stability index was 2.37.

With VLRSRIRFIHLVTGCVLGSSGLVL [K22L] as the variant, how does the protein stability index read?
The protein stability index was 2.69.

Which protein stability index does the source give for VLRSRIRFIHLVTGCVLGSSGFVL [K22F] here?
The protein stability index was 2.53.

With VLRSRIRFIHLVTGCVLGSSGSVL [K22S] as the variant, how does the protein stability index read?
The protein stability index was 2.57.

Which protein stability index does the source give for VLRSRIRFIHLVTGCVLVSSGKVL [G18V] here?
Its protein stability index is 1.38.

Variants of: B2
Assay: as above
Details: c terminus: a fixed tail appended

Which protein stability index does the source give for ADPVLDLPLPKPPPEPLSQVSMWD [P11K] here?
Its protein stability index is 4.69.

With ADPVLDLPLPEPPPEPLSQVSMWD [P11E] as the variant, how does the protein stability index read?
Its protein stability index is 4.69.

For ADPVLDLPLPVPPPEPLSQVSMWD [P11V], which protein stability index is on record?
The protein stability index was 4.43.

For ADPVLDLPLPPPKPEPLSQVSMWD [P13K], which protein stability index is on record?
Its protein stability index is 4.6.

Which protein stability index does the source give for ADPVLDLPLPPPRPEPLSQVSMWD [P13R] here?
Its protein stability index is 4.37.

For ADPVLDLPLPPPWPEPLSQVSMWD [P13W], which protein stability index is on record?
The protein stability index was 3.8.

With ADPVLDLPLPPPEPEPLSQVSMWD [P13E] as the variant, how does the protein stability index read?
Its protein stability index is 4.96.

Which protein stability index does the source give for ADPVLDLPLPPPVPEPLSQVSMWD [P13V] here?
The protein stability index was 3.84.

Variants of: B3
Assay: as above
Details: c terminus: a fixed tail appended

With GRKKYAIDPRNGIPKLTPGDNPYM [D6A] as the variant, how does the protein stability index read?
Its protein stability index is 3.26.

With GRKKYCIDPRNGIPKLTPGDNPYM [D6C] as the variant, how does the protein stability index read?
Its protein stability index is 2.89.

For GRVKYDIDPRNGIPKLTPGDNPYM [K3V], which protein stability index is on record?
Its protein stability index is 3.67.
